Results reported in patent publication US10562947B2, “Compositions and methods for preventing or treating diseases, conditions or processes characterized by aberrant fibroblast proliferation and extracellular matrix deposition” (MOERAE MATRIX, INC., priority 2011, dated 2020).

How the values were obtained:
Assay in all cases: Kinase Profiling Assay
Type in all cases: biochemical
Conditions in all cases: 100 μM peptide
MSK2(h) = MSK2(h) (Homo sapiens, UniProt O75676)
Procedure: (§1) Every kinase activity measurement was conducted in duplicate.
(§2) In addition to determining the IC50 of the compound, the specificity of MK2 inhibitory peptides was assessed by examining activities of all 266 human kinases available for testing in the Millipore kinase profiling service (Table 1).

JNK2α2(h) = JNK2α2(h) (Homo sapiens, UniProt P45984)
Procedure: as §1, §2

DYRK2(h) = target: T1, DYRK2(h) (Homo sapiens, UniProt Q92630)
T1 sequence (Q92630 1-601): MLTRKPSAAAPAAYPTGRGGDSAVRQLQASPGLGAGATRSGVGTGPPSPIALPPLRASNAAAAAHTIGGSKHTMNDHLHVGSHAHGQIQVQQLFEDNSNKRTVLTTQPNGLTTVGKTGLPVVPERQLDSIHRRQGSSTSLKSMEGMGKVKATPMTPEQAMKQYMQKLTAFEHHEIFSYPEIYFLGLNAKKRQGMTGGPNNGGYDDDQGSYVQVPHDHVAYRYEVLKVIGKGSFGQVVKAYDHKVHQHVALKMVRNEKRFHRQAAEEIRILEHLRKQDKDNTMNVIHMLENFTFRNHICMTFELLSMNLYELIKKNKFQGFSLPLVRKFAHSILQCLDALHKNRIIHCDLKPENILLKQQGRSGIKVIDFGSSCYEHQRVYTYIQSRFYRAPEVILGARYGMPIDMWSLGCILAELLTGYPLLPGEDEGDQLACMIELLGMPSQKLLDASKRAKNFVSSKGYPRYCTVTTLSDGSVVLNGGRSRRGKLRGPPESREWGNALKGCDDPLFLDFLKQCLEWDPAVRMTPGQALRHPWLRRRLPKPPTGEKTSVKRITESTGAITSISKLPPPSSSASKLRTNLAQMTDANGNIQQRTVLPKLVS
Procedure: as §1, §2

RIPK2(h) = target: T2, RIPK2(h) (Homo sapiens, UniProt O43353)
T2 construct: purchased Millipore (IC50 Profiler Express service)
Procedure: as §1, §2

IR(h) = target: T3, IR(h) (Homo sapiens, UniProt P06213)
T3 construct: purchased Millipore
Procedure: as §1, §2

PKCβI(h) = PKCβI(h) (Homo sapiens, UniProt P05771)
Procedure: as §1, §2

EGFR(T790M,L858R)(h) = EGFR(T790M,L858R)(h) (Homo sapiens, UniProt P00533, L858R/T790M)
Procedure: as §1, §2

NEK3(h) = target: T4, NEK3(h) (Homo sapiens, UniProt P51956)
T4 sequence (P51956 1-506): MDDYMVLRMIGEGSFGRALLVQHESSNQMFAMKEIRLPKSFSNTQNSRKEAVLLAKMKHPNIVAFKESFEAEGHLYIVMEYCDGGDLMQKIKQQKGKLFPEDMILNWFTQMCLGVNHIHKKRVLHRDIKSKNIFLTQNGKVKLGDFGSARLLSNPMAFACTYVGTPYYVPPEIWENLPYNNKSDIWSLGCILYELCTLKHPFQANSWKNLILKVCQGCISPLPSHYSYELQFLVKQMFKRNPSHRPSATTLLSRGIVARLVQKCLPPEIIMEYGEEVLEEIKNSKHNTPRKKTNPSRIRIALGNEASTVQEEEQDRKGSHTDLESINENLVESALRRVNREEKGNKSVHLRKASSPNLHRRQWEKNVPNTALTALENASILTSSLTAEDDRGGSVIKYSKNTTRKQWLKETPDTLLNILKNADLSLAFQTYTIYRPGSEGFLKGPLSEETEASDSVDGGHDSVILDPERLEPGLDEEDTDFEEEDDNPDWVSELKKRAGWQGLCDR
Procedure: as §1, §2

ULK3(h) = target: T5, ULK3(h) (Homo sapiens, UniProt Q6PHR2)
T5 sequence (Q6PHR2 1-472): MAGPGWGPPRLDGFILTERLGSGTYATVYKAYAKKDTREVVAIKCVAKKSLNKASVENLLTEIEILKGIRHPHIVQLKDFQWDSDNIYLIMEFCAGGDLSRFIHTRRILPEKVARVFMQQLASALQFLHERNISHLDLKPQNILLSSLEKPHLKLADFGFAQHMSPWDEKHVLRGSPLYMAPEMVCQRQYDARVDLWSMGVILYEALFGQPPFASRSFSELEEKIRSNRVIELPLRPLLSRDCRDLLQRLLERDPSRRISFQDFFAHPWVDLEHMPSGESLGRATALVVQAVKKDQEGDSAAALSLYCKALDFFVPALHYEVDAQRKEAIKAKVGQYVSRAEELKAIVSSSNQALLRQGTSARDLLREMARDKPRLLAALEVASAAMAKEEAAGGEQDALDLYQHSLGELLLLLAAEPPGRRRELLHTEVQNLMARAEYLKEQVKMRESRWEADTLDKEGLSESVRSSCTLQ
Procedure: as §1, §2

GRK6(h) = target: T6, GRK6(h) (Homo sapiens, UniProt P43250)
T6 construct: purchased Millipore
Procedure: as §1, §2

Bmx(h) = target: T7, Bmx(h) (Homo sapiens, UniProt P51813)
T7 sequence (P51813 1-675): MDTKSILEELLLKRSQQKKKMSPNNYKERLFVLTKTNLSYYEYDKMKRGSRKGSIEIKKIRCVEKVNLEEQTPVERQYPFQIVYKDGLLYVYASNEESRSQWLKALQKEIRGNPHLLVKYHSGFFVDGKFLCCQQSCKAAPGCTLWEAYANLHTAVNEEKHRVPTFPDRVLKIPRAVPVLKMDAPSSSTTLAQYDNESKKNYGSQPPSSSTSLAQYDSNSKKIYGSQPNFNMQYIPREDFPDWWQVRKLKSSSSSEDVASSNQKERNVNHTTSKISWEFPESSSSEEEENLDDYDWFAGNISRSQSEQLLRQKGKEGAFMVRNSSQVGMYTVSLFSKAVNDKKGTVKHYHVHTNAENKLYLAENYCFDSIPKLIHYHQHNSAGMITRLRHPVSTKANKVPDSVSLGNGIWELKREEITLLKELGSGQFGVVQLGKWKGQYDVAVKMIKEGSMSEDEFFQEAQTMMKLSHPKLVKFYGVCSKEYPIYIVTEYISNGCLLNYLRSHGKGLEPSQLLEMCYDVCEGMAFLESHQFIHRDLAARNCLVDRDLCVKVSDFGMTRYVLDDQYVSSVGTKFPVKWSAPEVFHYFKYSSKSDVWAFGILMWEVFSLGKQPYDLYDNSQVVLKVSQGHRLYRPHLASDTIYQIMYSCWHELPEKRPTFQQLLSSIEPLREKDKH
Procedure: as §1, §2

T2 sequence (O43353 whole entry): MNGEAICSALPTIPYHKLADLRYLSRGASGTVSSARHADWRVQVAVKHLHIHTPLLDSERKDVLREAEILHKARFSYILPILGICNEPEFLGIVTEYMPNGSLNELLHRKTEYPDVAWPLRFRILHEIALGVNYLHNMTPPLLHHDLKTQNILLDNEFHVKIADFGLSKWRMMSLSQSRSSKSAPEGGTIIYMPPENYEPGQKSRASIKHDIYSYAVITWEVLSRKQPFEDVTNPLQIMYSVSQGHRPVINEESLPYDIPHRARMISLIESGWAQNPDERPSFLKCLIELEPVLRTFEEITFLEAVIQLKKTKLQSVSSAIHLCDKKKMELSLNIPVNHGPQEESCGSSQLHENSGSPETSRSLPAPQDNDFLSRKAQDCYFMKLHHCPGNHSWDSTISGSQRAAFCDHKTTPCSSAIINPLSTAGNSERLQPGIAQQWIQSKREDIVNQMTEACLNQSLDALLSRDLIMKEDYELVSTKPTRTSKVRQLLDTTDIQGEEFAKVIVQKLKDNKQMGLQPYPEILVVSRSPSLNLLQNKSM
Sequence of MSK2(h) (O75676 whole entry): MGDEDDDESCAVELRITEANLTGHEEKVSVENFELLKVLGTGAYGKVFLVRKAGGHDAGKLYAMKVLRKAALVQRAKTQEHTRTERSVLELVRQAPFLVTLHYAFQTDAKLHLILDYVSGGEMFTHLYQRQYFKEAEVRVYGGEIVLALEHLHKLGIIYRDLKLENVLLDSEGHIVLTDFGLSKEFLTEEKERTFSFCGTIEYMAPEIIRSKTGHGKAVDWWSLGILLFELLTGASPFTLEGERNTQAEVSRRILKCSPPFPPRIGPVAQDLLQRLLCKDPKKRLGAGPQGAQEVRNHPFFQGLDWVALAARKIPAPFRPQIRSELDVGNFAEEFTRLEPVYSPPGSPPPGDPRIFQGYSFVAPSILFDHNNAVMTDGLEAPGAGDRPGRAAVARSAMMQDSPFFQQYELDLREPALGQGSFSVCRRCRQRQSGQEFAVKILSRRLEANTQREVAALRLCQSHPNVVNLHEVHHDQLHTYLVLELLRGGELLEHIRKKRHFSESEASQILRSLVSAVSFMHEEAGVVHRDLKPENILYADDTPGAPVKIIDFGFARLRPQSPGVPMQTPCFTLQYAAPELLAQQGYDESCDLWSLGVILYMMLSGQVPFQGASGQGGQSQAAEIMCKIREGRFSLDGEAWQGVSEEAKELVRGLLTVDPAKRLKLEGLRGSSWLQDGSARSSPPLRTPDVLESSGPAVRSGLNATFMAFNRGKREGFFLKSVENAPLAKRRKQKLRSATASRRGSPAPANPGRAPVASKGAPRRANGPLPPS
T6 sequence (P43250 whole entry): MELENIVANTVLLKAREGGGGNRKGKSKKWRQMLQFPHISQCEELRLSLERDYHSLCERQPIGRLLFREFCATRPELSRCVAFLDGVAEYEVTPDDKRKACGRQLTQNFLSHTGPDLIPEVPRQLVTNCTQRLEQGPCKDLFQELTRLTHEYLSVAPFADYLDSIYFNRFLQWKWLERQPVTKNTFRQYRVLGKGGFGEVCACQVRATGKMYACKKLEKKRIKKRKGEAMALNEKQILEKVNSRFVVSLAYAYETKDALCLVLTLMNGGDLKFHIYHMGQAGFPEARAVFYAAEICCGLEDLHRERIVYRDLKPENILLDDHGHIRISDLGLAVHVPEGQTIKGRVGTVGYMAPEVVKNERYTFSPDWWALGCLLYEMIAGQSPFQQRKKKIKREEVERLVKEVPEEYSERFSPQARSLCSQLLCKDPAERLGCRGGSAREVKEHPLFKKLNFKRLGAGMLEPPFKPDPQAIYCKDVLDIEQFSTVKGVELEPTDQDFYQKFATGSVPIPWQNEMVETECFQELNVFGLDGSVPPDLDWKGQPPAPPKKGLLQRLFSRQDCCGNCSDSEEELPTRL
Sequence of PKCβI(h) (P05771 whole entry): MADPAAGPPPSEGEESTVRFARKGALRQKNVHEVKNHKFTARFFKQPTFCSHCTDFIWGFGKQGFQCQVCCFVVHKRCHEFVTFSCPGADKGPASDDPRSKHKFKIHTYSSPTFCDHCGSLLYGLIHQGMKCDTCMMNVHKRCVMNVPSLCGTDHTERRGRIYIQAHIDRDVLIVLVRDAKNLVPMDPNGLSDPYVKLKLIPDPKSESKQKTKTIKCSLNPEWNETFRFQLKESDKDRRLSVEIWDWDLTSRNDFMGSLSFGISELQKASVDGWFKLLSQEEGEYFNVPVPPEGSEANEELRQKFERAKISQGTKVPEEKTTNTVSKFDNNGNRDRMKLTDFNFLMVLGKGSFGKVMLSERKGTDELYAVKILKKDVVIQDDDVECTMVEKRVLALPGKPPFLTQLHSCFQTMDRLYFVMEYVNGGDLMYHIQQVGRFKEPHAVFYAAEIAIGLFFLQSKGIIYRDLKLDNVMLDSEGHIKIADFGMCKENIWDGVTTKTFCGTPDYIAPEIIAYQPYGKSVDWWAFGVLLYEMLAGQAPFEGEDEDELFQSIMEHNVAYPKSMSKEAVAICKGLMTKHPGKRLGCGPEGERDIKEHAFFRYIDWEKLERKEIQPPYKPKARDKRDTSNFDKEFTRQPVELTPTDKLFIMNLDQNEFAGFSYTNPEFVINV

Sequence	MSK2(h) % activity (MSK2(h)) [%]	JNK2α2(h) % activity (JNK2α2(h)) [%]	DYRK2(h) % activity (DYRK2(h)) [%]	RIPK2(h) % activity (RIPK2(h)) [%]	IR(h) % activity (IR(h)) [%]	PKCβI(h) % activity (PKCβI(h)) [%]	EGFR(T790M,L858R)(h) % activity (EGFR(T790M,L858R)(h)) [%]	NEK3(h) % activity (NEK3(h)) [%]	ULK3(h) % activity (ULK3(h)) [%]	GRK6(h) % activity (GRK6(h)) [%]	Bmx(h) % activity (Bmx(h)) [%]
FAKLAARLYRKALARQLGVAA [MMI-0300]	56	98	155	97	96	78	85	92	167	147	–
HRRIKAWLKKIKALARQLGVAA (Mammalian) [MMI-0500]	14	81	127	30	95	1	53	20	177	174	45
KAFAKLAARLYRKALARQLGVAA [MMI-0400]	52	96	195	98	85	78	78	85	147	141	26
YARAAARQARAKALNRQLGVA (Mammalian) [MMI-0200]	88	–	142	98	90	98	108	100	164	132	76
